The text below walks through data of PMC3502708 (Journal of molecular biology, 2012).

Where no end group is shown, it is not given here. Me3 = trimethyl (trimethylated lysine)

Assay [1] addresses T1, MORF PHD1/2 fingers (aa 211-329) (human, UniProt Q8WYB5-3 211-329).
T1 sequence (looked up): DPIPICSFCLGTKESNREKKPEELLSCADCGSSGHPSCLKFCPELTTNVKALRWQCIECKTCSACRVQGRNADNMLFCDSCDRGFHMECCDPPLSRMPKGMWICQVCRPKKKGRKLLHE
The assay is described as follows: NMR titration.

Assay [2] concerns the target T1, MORF PHD1/2 fingers (aa 211-329). The assay is described as follows: other fluorescence titration.
Assay [3] has as its target MOZ PHD1/2 fingers (aa 207-318) (human, UniProt Q92794 207-318). Briefly: other fluorescence titration.

Sequence of MOZ PHD1/2 fingers (aa 207-318) (Q92794 207-318): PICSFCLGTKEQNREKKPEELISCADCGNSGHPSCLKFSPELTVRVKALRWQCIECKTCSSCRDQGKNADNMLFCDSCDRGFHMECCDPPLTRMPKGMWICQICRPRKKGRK

Take ARTK(Me3)QTARKSTG [histone H3 peptide trimethylated at Lys4]: the dissociation constant (Kd) (commonly the constant that tells how readily two partners part at equilibrium) in assay [1] was approximately 2 mM.

With ARTKQTARKSTG (peptide, UniProt P68431 2-13, looked up, acetyl-lysine at 9) [histone H3 peptide acetylated at Lys9, amino acids 1-12], in assay [1], the binding result is given as “binds”.

Take ARTK(Me3)QTARK(Ac)STG [histone H3 peptide trimethylated at Lys4 and acetylated at Lys9]: the “fold stronger than H3K4me3” value in assay [1] is approximately 4 fold.

Take ARTKQTARKSTG (peptide, UniProt P68431 2-13, looked up) [unmodified histone H3 peptide, amino acids 1-12]: the binding result in assay [1] is given as “binds”.

With ARTKQTARKSTG (acetyl-lysine at 9) [histone H3 peptide acetylated at Lys9 (length not stated for the experiment)], the Kd in assay [2] was 1400 nM; in assay [3], 1500 nM.
